Measured values reported in PMC6642173, “Acetylation regulates ribonucleotide reductase activity and cancer cell growth” (Nature Communications, 2019).
Residue numbers refer to the chain shown, from its start. Names and notes keep the numbering of the source.

B1: Recombinant His6-tagged WT RRM2 (natural protein, human, UniProt P31350 1-389, looked up)
chain: MLSLRVPLAPITDPQQLQLSPLKGLSLVDKENTPPALSGTRVLASKTARRIFQEPTEPKTKAAAPGVEDEPLLRENPRRFVIFPIEYHDIWQMYKKAEASFWTAEEVDLSKDIQHWESLKPEERYFISHVLAFFAASDGIVNENLVERFSQEVQITEARCFYGFQIAMENIHSEMYSLLIDTYIKDPKEREFLFNAIETMPCVKKKADWALRWIGDKEATYGERVVAFAAVEGIFFSGSFASIFWLKKRGLMPGLTFSNELISRDEGLHCDFACLMFKHLVHKPSEERVREIIINAVRIEQEFLTEALPVKLIGMNCTLMKQYIEFVADRLMLELGFSKVFRVENPFDFMENISLEGKTNFFEKRVGEYQRMGVMSSPTENSFTLDADF
notes: RRM2, human; Purification may be described in the Supplementary Methods; also called recombinant RRM2 WT; source: E. coli, purified
B2: Recombinant K95R RRM2 (natural protein, human, UniProt P31350 1-389, looked up)
chain: B1 chain with K95R
notes: RRM2, human, with K95R; Probably His6-tagged and made in E. coli like the WT and K95Q proteins; source: recombinant, purified

Target: the molecule itself
Test: cross-linking; purified recombinant RRM2 proteins cross-linked with 2 mM disuccinimidylsuberate (DSS), SDS-PAGE

Row | Protein | stoichiometry N
1 | B1 | 2
2 | B2 | 2
